Target: T1, MtuSSB (Mycobacterium tuberculosis, UniProt P9WGD5)
T1 sequence: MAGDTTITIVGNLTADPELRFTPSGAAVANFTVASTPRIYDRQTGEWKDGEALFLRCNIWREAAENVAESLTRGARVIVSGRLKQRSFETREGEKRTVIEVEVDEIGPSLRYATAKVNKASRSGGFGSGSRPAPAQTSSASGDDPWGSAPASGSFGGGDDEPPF
Test: EMSA; 20 mM Tris-HCl pH 8.0, 50 mM NaCl, 5% glycerol, 50 μg/ml BSA, 15 μl, 30 min at 4°C; […]
Conditions: protein: recombinant; chain copies: 4; label: 5' 32P; single strand

B1: 79 mer ssDNA (ssDNA)
DNA: GCACTAGTGCGGATAGCCCCGTGTTGTTGTCTGACCCCCGACCCCGACGGCAATGCGGGGCAATCCCCTGGAGGCCTGC
**Q.** Does B1 bind?
**A.** binds
